Test system: tet operator sequence
Assay: β-galactosidase activity of a tetracycline-regulated promoter in transformed E. coli with revTetR, in the presence and absence of anhydrotetracycline (atc)
Assay type: cell-based, Escherichia coli
Conditions: for β-Galactosidase Activity, Cultured Without ATC: RevTetR isolate cultured in the absence of anhydrotetracycline (ATC); for β-Galactosidase Activity, Cultured With ATC: RevTetR isolate cultured in the presence of anhydrotetracycline (ATC)
Description: The relative activity of revTetR repressors was determined at 28° C. and 37° C. for each clone by measuring β-galactosidase activity of a tetracycline-regulated promoter in transformed Escherichia coli in the presence and absence of the tetracycline analog, anhydrotetracycline (atc). The relative β-galactosidase activity was measured in standard Miller units and is presented as the percent of maximal expression as measured in the absence of Tet repressor. […] With respect to each mutant, as well as the wild-type controls, FIG. 2 provides two horizontal bars; the upper horizontal bar represents the level of β-galactosidase activity in the absence of anhydrotetracycline (−atc) while the lower horizontal bar represents the level of β-galactosidase activity in the presence of anhydrotetracycline (+atc).
The pool of mutated Tet repressors was cloned into plasmid pWH1411 (Baumeister et al., 1992, Proteins: Struct. Funct. Genet. 14: 168-77), which carries a TetR(B) gene, to provide a TetR(BD) chimera that included, as the amino-terminal portion, amino acid residues 1 to 50 of the TetR(B) gene and, as the carboxyl-terminal portion, amino acid residues 51 to 208 of the TetR(D) gene. The resulting plasmid pool was screened in a genetic assay which positively selects for a functional interaction between a Tet repressor and its cognate operator using E. coli strain WH207(λWH25) (the construction of this strain is described in detail in Wissmann et al., (1991) Genetics 128: 225-32). In this E. coli strain, tet operators direct the expression of divergently arranged β-galactosidase (lacZ) and Lac repressor (lacI) genes and the lac regulatory region directs the expression of a galactokinase (galK) gene on plasmid pWH414. Binding of Tet repressors to tet operators turns off transcription of the lacI and lacZ genes. The absence of Lac repressor allows for expression of the galK gene, which enables the E. coli strain to use galactose as a sole carbon source, which serves as one marker. The lacZ^− phenotype serves as a second marker. Thus, bacteria containing Tet repressors which bind to tet operators, have a Gal^+, lacZ^− phenotype. Bacteria containing wild-type Tet repressors have a Gal^+, lacZ^− phenotype in the absence of tetracycline. Modified “reverse” Tet repressors (revTetR) were selected based upon a Gal^+, lacZ^− phenotype in the presence of tetracycline.
The ability of each revTetR clone to bind to its cognate tet operator sequence and regulate transcription in a prokaryotic organism, Escherichia coli, in the presence and absence of a tetracycline analog (anhydrotetracycline, atc) was determined (Table 3, FIG. 2). The relative ratios of non-repressed to repressed levels of transcription for the 15 clones range from about 1.4-fold to about 50-fold at 28° C. and from about 1.3-fold to 40-fold at 37° C. For example, clone 4b comprising an amino acid substitution of glutamic acid for glycine at position 96 (e.g., SEQ ID NO. 24) repressed transcription 19-fold at 37° C. but to a less extent at 28° C. (5.7-fold, Table 3). Furthermore, clones 14, 5a and 7 comprising the arginine for glycine substitution at position 96 and further comprising a substitution or substitutions of serine for threonine at position 103 and valine for glutamic acid at position 114; leucine for proline at position 159; or glutamine to histidine at position 188, respectively, have pronouncedly different activities.
wherein each underlined base was present in approximately 85% of the oligonucleotides, while the remaining approximately 15% of the oligonucleotides contained one of the other three, non-wild type bases at that position. Similar mutagenic, partially randomized oligonucleotides were prepared for mutagenesis of the coding regions for amino acids 14-25 and 93-102. It was predicted that, according to a binomial distribution, each oligonucleotide would contain three to four mutations. […]

Molecule	β-Galactosidase Activity, Cultured Without ATC	β-Galactosidase Activity, Cultured With ATC
TetRrevAF3/5: revTetR(BD) V20F G21R R49S (protein, Modified tetracycline repressor, revTetR(BD) V20F G21R R49S) MSRLDKSKVINSALELLNEFRIEGLTTRKLAQKLGVEQPTLYWHVKNKSTLLDALAVEILARHHDYSLPAAGESWQSFLRNNAMSFRRALLRYRDGAKVHLGTRPDEKQYDTVETQLRFMTENGFSLRDGLYAISAVSHFTLGAVLEQQEHTAALTDRPAAPDENLPPLLREALQIMDSDDGEQAFLHGLESLIRGFEVQLTALLQIV	101.824	4.696
TetRrevAF4/6: revTetR(BD) E15D L17I N18T E23G A54V D95A (protein, Modified tetracycline repressor, revTetR(BD) E15D L17I N18T E23G A54V D95A) MSRLDKSKVINSALDLITEVGIGGLTTRKLAQKLGVEQPTLYWHVKNKRALLDVLAVEILARHHDYSLPAAGESWQSFLRNNAMSFRRALLRYRAGAKVHLGTRPDEKQYDTVETQLRFMTENGFSLRDGLYAISAVSHFTLGAVLEQQEHTAALTDRPAAPDENLPPLLREALQIMDSDDGEQAFLHGLESLIRGFEVQLTALLQIV	100.702	3.7257
TetRrevAtc4-13: revTetR(BD) E58N I59T L60F H63Y (protein, Modified tetracycline repressor, revTetR(BD) E58N I59T L60F H63Y) MSRLDKSKVINSALELLNEVGIEGLTTRKLAQKLGVEQPTLYWHVKNKRALLDALAVNTFARYHDYSLPAAGESWQSFLRNNAMSFRRALLRYRDGAKVHLGTRPDEKQYDTVETQLRFMTENGFSLRDGLYAISAVSHFTLGAVLEQQEHTAALTDRPAAPDENLPPLLREALQIMDSDDGEQAFLHGLESLIRGFEVQLTALLQIV	98.8175	8.1397
TetRrevAD2/8: revTetR(BD) V20G D53N A54A A56G V57L I59F L60L R62R (protein, Modified tetracycline repressor, revTetR(BD) V20G D53N A54A A56G V57L I59F L60L R62R) MSRLDKSKVINSALELLNEGGIEGLTTRKLAQKLGVEQPTLYWHVKNKRALLNALGLEFFARHHDYSLPAAGESWQSFLRNNAMSFRRALLRYRDGAKVHLGTRPDEKQYDTVETQLRFMTENGFSLRDGLYAISAVSHFTLGAVLEQQEHTAALTDRPAAPDENLPPLLREALQIMDSDDGEQAFLHGLESLIRGFEVQLTALLQIV	73.8584	1.8468
TetRrevAF4/9: revTetR(BD) L16R E19D E23D D95G V99A G102G (protein, Modified tetracycline repressor, revTetR(BD) L16R E19D E23D D95G V99A G102G) MSRLDKSKVINSALERLNDVGIDGLTTRKLAQKLGVEQPTLYWHVKNKRALLDALAVEILARHHDYSLPAAGESWQSFLRNNAMSFRRALLRYRGGAKAHLGTRPDEKQYDTVETQLRFMTENGFSLRDGLYAISAVSHFTLGAVLEQQEHTAALTDRPAAPDENLPPLLREALQIMDSDDGEQAFLHGLESLIRGFEVQLTALLQIV	110.616	1.3761
TetRrevAF4/4: revTetR(BD) G24A R94P D95E G102D (protein, Modified tetracycline repressor, revTetR(BD) G24A R94P D95E G102D) MSRLDKSKVINSALELLNEVGIEALTTRKLAQKLGVEQPTLYWHVKNKRALLDALAVEILARHHDYSLPAAGESWQSFLRNNAMSFRRALLRYPEGAKVHLDTRPDEKQYDTVETQLRFMTENGFSLRDGLYAISAVSHFTLGAVLEQQEHTAALTDRPAAPDENLPPLLREALQIMDSDDGEQAFLHGLESLIRGFEVQLTALLQIV	94.4528	3.8273
TetRrevAF3/6: revTetR(BD) E23K D95H L101H (protein, Modified tetracycline repressor, revTetR(BD) E23K D95H L101H) MSRLDKSKVINSALELLNEVGIKGLTTRKLAQKLGVEQPTLYWHVKNKRALLDALAVEILARHHDYSLPAAGESWQSFLRNNAMSFRRALLRYRHGAKVHHGTRPDEKQYDTVETQLRFMTENGFSLRDGLYAISAVSHFTLGAVLEQQEHTAALTDRPAAPDENLPPLLREALQIMDSDDGEQAFLHGLESLIRGFEVQLTALLQIV	77.2272	1.0546
TetRrevAD3/10: revTetR(BD) N18Y G24G L51L D53Y A54V (protein, Modified tetracycline repressor, revTetR(BD) N18Y G24G L51L D53Y A54V) MSRLDKSKVINSALELLYEVGIEGLTTRKLAQKLGVEQPTLYWHVKNKRALLYVLAVEILARHHDYSLPAAGESWQSFLRNNAMSFRRALLRYRDGAKVHLGTRPDEKQYDTVETQLRFMTENGFSLRDGLYAISAVSHFTLGAVLEQQEHTAALTDRPAAPDENLPPLLREALQIMDSDDGEQAFLHGLESLIRGFEVQLTALLQIV	89.1669	3.5004
TetRrevAF3/8: revTetR(BD) E15V L16L N18H E19D V20D R94P D95H H100N (protein, Modified tetracycline repressor, revTetR(BD) E15V L16L N18H E19D V20D R94P D95H H100N) MSRLDKSKVINSALVLLHDDGIEGLTTRKLAQKLGVEQPTLYWHVKNKRALLDALAVEILARHHDYSLPAAGESWQSFLRNNAMSFRRALLRYPHGAKVNLGTRPDEKQYDTVETQLRFMTENGFSLRDGLYAISAVSHFTLGAVLEQQEHTAALTDRPAAPDENLPPLLREALQIMDSDDGEQAFLHGLESLIRGFEVQLTALLQIV	95.5476	2.7257
TetRrevAD2/5: revTetR(BD) L17F L55L L60F R62V (protein, Modified tetracycline repressor, revTetR(BD) L17F L55L L60F R62V) MSRLDKSKVINSALELFNEVGIEGLTTRKLAQKLGVEQPTLYWHVKNKRALLDALAVEIFAVHHDYSLPAAGESWQSFLRNNAMSFRRALLRYRDGAKVHLGTRPDEKQYDTVETQLRFMTENGFSLRDGLYAISAVSHFTLGAVLEQQEHTAALTDRPAAPDENLPPLLREALQIMDSDDGEQAFLHGLESLIRGFEVQLTALLQIV	50.466	1.4141
TetRrevAD3/9: revTetR(BD) E15Q L17L L55M I59R (protein, Modified tetracycline repressor, revTetR(BD) E15Q L17L L55M I59R) MSRLDKSKVINSALQLLNEVGIEGLTTRKLAQKLGVEQPTLYWHVKNKRALLDAMAVERLARHHDYSLPAAGESWQSFLRNNAMSFRRALLRYRDGAKVHLGTRPDEKQYDTVETQLRFMTENGFSLRDGLYAISAVSHFTLGAVLEQQEHTAALTDRPAAPDENLPPLLREALQIMDSDDGEQAFLHGLESLIRGFEVQLTALLQIV	60.2932	4.2427
TetRrevAF4/5: revTetR(BD) E15G L16L D95A V99G (protein, Modified tetracycline repressor, revTetR(BD) E15G L16L D95A V99G) MSRLDKSKVINSALGLLNEVGIEGLTTRKLAQKLGVEQPTLYWHVKNKRALLDALAVEILARHHDYSLPAAGESWQSFLRNNAMSFRRALLRYRAGAKGHLGTRPDEKQYDTVETQLRFMTENGFSLRDGLYAISAVSHFTLGAVLEQQEHTAALTDRPAAPDENLPPLLREALQIMDSDDGEQAFLHGLESLIRGFEVQLTALLQIV	105.33	0.9927

From patent US20030186281A1, “Modified tetracycline repressor protein compositions and methods of use” (priority 2001, published 2003)
